Substitutions are numbered along the chain they refer to.
T1: human Sortilin (SORT1), full-length untagged, expressed on cells (human, UniProt Q99523 78-831)
T1 sequence: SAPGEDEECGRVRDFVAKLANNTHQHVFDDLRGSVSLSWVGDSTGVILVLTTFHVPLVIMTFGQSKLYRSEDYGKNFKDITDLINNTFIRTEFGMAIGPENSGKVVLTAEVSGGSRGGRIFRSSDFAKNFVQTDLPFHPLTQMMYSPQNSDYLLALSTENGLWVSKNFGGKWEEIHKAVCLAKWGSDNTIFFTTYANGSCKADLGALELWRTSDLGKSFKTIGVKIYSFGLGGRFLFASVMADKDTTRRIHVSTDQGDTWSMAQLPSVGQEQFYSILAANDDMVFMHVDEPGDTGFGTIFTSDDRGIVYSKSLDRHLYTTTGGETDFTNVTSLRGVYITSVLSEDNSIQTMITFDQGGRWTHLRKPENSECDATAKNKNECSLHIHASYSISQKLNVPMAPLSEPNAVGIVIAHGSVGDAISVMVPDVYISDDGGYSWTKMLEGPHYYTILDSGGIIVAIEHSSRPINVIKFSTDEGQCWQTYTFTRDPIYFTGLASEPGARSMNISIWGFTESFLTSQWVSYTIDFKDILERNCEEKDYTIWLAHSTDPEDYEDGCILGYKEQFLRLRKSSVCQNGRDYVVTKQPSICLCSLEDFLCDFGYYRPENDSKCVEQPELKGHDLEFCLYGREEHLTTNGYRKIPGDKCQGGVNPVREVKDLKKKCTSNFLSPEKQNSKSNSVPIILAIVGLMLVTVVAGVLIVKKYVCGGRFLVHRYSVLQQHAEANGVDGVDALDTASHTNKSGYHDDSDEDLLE

B1: S-60-15 (antibody, IgG1, V domains shown)
VH: QVQLQESGPGLVKPSETLSLTCAVSGYSISSGYYWGWIRQPPGKGLEWIGTIYHSGSTYYNPSLKSRVTISVDTSKNQFSLKLSSVTAADTAVYYCARQGSIKQGYYGMDVWGQGTTVTVSS
VL: not shown
B2: S-60-16 (antibody, IgG1, V domains shown)
VH: B1 VH
VL: not shown
notes: Tested on the huIgG1 (WT) backbone
B3: S-60-18 (antibody, IgG1, V domains shown)
VH: B1 VH
VL: DIVMTQSPLSLPVTPGGPASISCRSSQSLLRSNGYNYLDWYLQKPGQSPQLLIYLGSNRASGVPDRLSGSGSGTDFTLKISRVEAEDVGVYYCMQQQETPLTFGGGTKVEIK
notes: as for B2
B4: S-60-19 (antibody, IgG1, V domains shown)
VH: B1 VH with R67Q, K82E, K103Q
VL: not shown
notes: as for B2
B5: S-60-1 (antibody, IgG1, V domains shown)
VH: B1 VH with G32V, Y33R, T51S
VL: not shown
notes: as for B2
B6: S-60-2 (antibody, IgG1, V domains shown)
VH: B1 VH with G32V, Y33R, T51A, H54P
VL: not shown
notes: as for B2
B7: S-60-4 (antibody, IgG1, V domains shown)
VH: B1 VH
VL: B3 VL with G17E, P18S, S28G, L67F
notes: as for B2
B8: S-60-7 (antibody, IgG1, V domains shown)
VH: B1 VH
VL: not shown
notes: Tested on the huIgG1 (WT) backbone; also called S-60-5; S-60-6
B9: S-60-8 (antibody, IgG1, V domains shown)
VH: B1 VH
VL: not shown
notes: as for B2
B10: S-60-10 (antibody, IgG1, V domains shown)
VH: B1 VH with R67Q, K82E, K103Q
VL: not shown
notes: as for B2
B11: S-60-11 (antibody, IgG1, V domains shown)
VH: B1 VH with R67Q, K82E, K103Q
VL: not shown
notes: as for B2
B12: S-60-12 (antibody, IgG1, V domains shown)
VH: B1 VH with R67Q, K82E, K103Q
VL: B3 VL with G17E, S48P, A60V, L67F
notes: as for B2
B13: S-60-13 (antibody, IgG1, V domains shown)
VH: B1 VH with K65E, K103Q
VL: not shown
notes: as for B2
B14: S-60-14 (antibody, IgG1, V domains shown)
VH: B1 VH with K65E, K103Q
VL: not shown
notes: as for B2

The binders below were run against T1, human Sortilin (SORT1), full-length … (assay: cell-based or functional assay).

Row | Binder | DR at 1.25 nM antibody (IgG): percent SORT1 downregulation, U251 cells
1 | B1 | 60.9%
2 | B2 | 70.1%
3 | B3 | 51.3%
4 | B4 | 55.5%

Target: T1, human Sortilin (SORT1), full-length …
Test: cell-based or functional assay
Remark: another data set of the same source

Row | Binder | DR EC50 (M): down-regulation of cell surface SORT1, U251 cells, FACS | DR at 0.6 nM antibody (IgG): percent SORT1 downregulation, U251 cells
5 | B5 | 2.73e-10 M | 50.4%
6 | B6 | 4.2e-10 M | 40.3%
7 | B7 | 4.18e-10 M | 39.6%
8 | B8 | 4.47e-10 M | 32.6%
9 | B9 | 5.76e-10 M | 32%

What follows are binders tested against T1, human Sortilin (SORT1), full-length … (assay: FACS on HEK293T cells expressing human SORT1, huIgG1).
Experimental: For the binding assay, stable HEK293T cells expressing human SORT1 were harvested by trypsinization, washed in PBS, counted and plated on 96-well u-bottom plates at 1×10⁵ cells/well. The plates were spun at 1,400 rpm for 3 minutes and primary anti-SORT1 or control antibodies were added in FACS buffer (PBS+2 FBS) and incubated on ice for one hour. Cells were subsequently centrifuged as before and washed thrice with FACS buffer. Cells were then incubated with anti-human APC conjugated secondary antibody (BD Biosciences) in FACS buffer for 30 minutes on ice. Cells were again washed three times with FACS buffer and analyzed on a BD FACS Canto or an Intellicyt Flow Cytometer. Binding was measured as median fluorescent intensity (MFI) in the […] channel of the GFP positive cell population.
All antibodies were tested on the huIgG1 backbone.

Row | Binder | Kd
10 | B5 | 7.22 nM
11 | B6 | 11 nM
12 | B7 | 0.634 nM
13 | B8 | 0.787 nM
14 | B9 | 0.468 nM
15 | B10 | 0.65 nM
16 | B11 | 0.65 nM
17 | B12 | 0.89 nM
18 | B13 | 0.75 nM
19 | B14 | 1.05 nM
20 | B1 | 0.56 nM
21 | B2 | 0.78 nM
22 | B3 | 1.63 nM
23 | B4 | 0.8 nM

Target: T1, human Sortilin (SORT1), full-length …
Test: cell-based or functional assay
Remark: another data set of the same source

Row | Binder | DR at 0.63 nM antibody (IgG): percent SORT1 downregulation, U251 cells
24 | B10 | 85.4%
25 | B11 | 88.8%
26 | B12 | 87.4%
27 | B13 | 82.3%
28 | B14 | 80.5%

— patent US20200024348A1 (Alector, published 2020)
